Experimental findings from publication PMC9071465 are described below.

Experiment [1] has as its target At-HIGLE^184-368 (C-terminal region of At-HIGLE) (Arabidopsis thaliana). In words: SEC; Sephacryl 16/60 S-100, 20 mM Tris-HCl (pH 8.5), 5% glycerol, 5 mM beta-mercaptoethanol, 0.5 M NaCl; calibrated with gel filtration markers; oligomeric state from a standard curve. In general terms: SEC sorts molecules by how far they enter the pores of the column.
In experiment [2] the target is At-HIGLE (HYL-1 Interacting GIY-YIG Like Endonuclease) from Arabidopsis thaliana, full length (Arabidopsis thaliana). The experiment in a line: SEC; Sephacryl 16/60 S-200, 20 mM Tris-HCl (pH 8.5), 5% glycerol, 5 mM beta-mercaptoethanol, 0.5 M NaCl; calibrated with gel filtration markers; oligomeric state from a standard curve.

“At-HIGLE^184-368 (C-terminal region of At-HIGLE) (domain or fragment)” displayed a stoichiometry N in experiment [1] of 2.

As to “At-HIGLE (HYL-1 Interacting GIY-YIG Like Endonuclease) from Arabidopsis thaliana, full length (enzyme)”, in experiment [2], the stoichiometry N turned out to be 2.

The stoichiometry N is a count of units in the complex or per binding partner.
